{"source": "patent US20220098287A1", "key": {"[1]": {"target": "human α-CGRP N31A (25-37) (human)", "assay": "SPR (Biacore), 25 °C, Fab over peptide on SA chip; KD of mutant over KD of parent 25-37"}, "[2]": {"target": "human α-CGRP G33A (25-37) (human)", "assay": "SPR (Biacore), 25 °C, Fab over peptide on SA chip; KD of mutant over KD of parent 25-37"}, "[3]": {"target": "human α-CGRP P29A (25-37) (human)", "assay": "SPR (Biacore), 25 °C, Fab over peptide on SA chip; KD of mutant over KD of parent 25-37"}, "[4]": {"target": "human α-CGRP S34A (25-37) (human)", "assay": "SPR (Biacore), 25 °C, Fab over peptide on SA chip; KD of mutant over KD of parent 25-37"}, "[5]": {"target": "human α-CGRP V32A (25-37) (human)", "assay": "SPR (Biacore), 25 °C, Fab over peptide on SA chip; KD of mutant over KD of parent 25-37"}, "[6]": {"target": "human α-CGRP F37A (25-37) (human)", "assay": "SPR (Biacore), 25 °C, Fab over peptide on SA chip; KD of mutant over KD of parent 25-37"}, "[7]": {"target": "human α-CGRP T30A (25-37) (human)", "assay": "SPR (Biacore), 25 °C, Fab over peptide on SA chip; KD of mutant over KD of parent 25-37"}, "[8]": {"target": "human α-CGRP K35A (19-37) (human)", "assay": "SPR (Biacore), 25 °C, Fab over peptide on SA chip; KD of mutant over KD of parent 19-37"}}}
{"substance": "murine anti-CGRP monoclonal antibody 7E9, Fab fragment", "values": [{"measurement": "KD (mutant/parent)", "setting": "[1]", "value": 9}, {"measurement": "KD (mutant/parent)", "setting": "[2]", "value": 1260}, {"measurement": "KD (mutant/parent)", "setting": "[3]", "value": 26}, {"measurement": "KD (mutant/parent)", "setting": "[4]", "value": 69}, {"measurement": "KD (mutant/parent)", "setting": "[5]", "value": 41}, {"measurement": "KD (mutant/parent)", "setting": "[6]", "value": 3600}, {"measurement": "KD (mutant/parent)", "setting": "[7]", "value": 7}, {"measurement": "KD (mutant/parent)", "setting": "[8]", "value": 4}]}
